Like-named read-outs stand apart in the source and are kept apart here.

Experiment [1] deals with T1, recombinant human IL-13 (human, UniProt P35225 35-146). Description: cell-based or functional assay.
Experiment [2] addresses T1, recombinant human IL-13. Briefly: SPR.
The target of experiment [3] is T2, human TSLP (human, UniProt Q969D9 29-159).
T2 construct: also called hTSLP; rhTSLP
Description: SPR.

Experiment [4] deals with T1, recombinant human IL-13. Briefly: cell-based or functional assay. The source holds these as a separate data set.
Experiment [5] deals with T3, hTSLP-His (human, UniProt Q969D9 29-159, limits assumed).
T3 construct: bought; also called hTSLP (ACROBiosystems TSP-H52Hb); not shown: His tag
Description: competition ELISA, 7 nM TSLP-His pre-incubated with antibody; competitor Tezepelumab coated.

Experiment [6] addresses T4, cynomolgus monkey (cyno) TSLP (cynomolgus monkey, UniProt A0A7N9CAT7 29-159).
T4 construct: also called cTSLP; cynomolgus TSLP
Briefly: SPR.

Experiment [7] deals with T1, recombinant human IL-13. Description: SPR. This is another data set of the same source.
In experiment [8] the target is T2, human TSLP. Description: SPR. The source holds these as a separate data set.
The target in experiment [9] is T5, recombinant cynomolgus monkey IL-13 (cynomolgus monkey, UniProt Q0PW92 21-132).
T5 construct: bought; also called rc-IL-13; cIL-13
Briefly: SPR.

Experiment [10] concerns the target T3, hTSLP-His. Description: cell-based or functional assay.

T4 sequence (A0A7N9CAT7 entry or part of it): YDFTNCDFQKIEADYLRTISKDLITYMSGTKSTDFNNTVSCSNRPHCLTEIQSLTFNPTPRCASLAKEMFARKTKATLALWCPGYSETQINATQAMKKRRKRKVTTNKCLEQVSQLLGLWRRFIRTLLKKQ
T1 sequence (P35225 35-146 limits assumed): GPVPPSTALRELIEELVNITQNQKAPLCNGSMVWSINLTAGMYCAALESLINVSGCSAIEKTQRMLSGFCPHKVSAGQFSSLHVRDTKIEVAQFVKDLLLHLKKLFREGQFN
T5 sequence (Q0PW92 entry or part of it): as the sequence (P35225 35-146 limits assumed) above, with G1S, R10K, M42V, S67N, H83R, L100V counted along it

B1: BDG38.106 (antibody, V domains shown)
VH: QMQLVESGGGVVQPGRSLTLSCAASGFEFRTYGMHWVRQAPGKGLEWVAVIWDDGSNTVYADSVKGRFTITRDNSKNTLNLQMNSLRVEDTAVYYCVRAPQWYLTAEAFDLWGQGTMVTVSS
VL: SYILTQPPSVSVAPGQTATITCGGNLIGSRLVHWYQQKPGQAPVLVIYDDSDRPSRIPERFSGSNIGNTATLTIEDVEEGDEADYYCQVWDHYSDHMVFGGGTKLTVL
notes: IgG1
For the molecule B1, in the experiment with recombinant human IL-13 [1], the “IC50 CD23” value was found to be 162 pM. For the same molecule, in the experiment with recombinant human IL-13 [2], the dissociation constant (Kd) is 34.6 pM, the dissociation rate constant (koff) was 0.000205 s⁻¹ and the kon was 5.93e+06 M⁻¹ s⁻¹. For the same molecule, in the experiment with human TSLP [3], the Kd is 52.5 pM, the off-rate constant (koff) worked out at 0.000257 s⁻¹ and the kon was 4.9e+06 M⁻¹ s⁻¹. Besides, in the experiment with recombinant human IL-13 [4], the “HEK-IL-13 [nM] (IC50, STAT6 reporter)” value came to 0.0113 nM. This molecule also returned a half-inhibitory concentration (IC50) with hTSLP-His [5] of 10100 pM.

B2: BDG38.125 (antibody, V domains shown)
VH: QMQLVESGGGVVQPGRSLRLSCAASGFEFRTYGMHWVRQAPGKGLEWVAVIWDDGSNTHYADSVKGRFTITRDNSKNTLNLQMNSLRAEDTAVYYCVRAPQWYLTAEAFDLWGQGTMVTVSS
VL: SYVLTQPPSVSVAPGETATITCGGNLIGARLVHWYQQKPGQAPVLVIYDDSDRPSRIPERFSGSNIGNTATLTIERVEEGDEADYYCQVWDYSSDHMVFGGGTKLTVL
notes: IgG1
As to B2, in the experiment with recombinant human IL-13 [1], the “IC50 CD23” value is 52.7 pM. Besides, the Kd was determined as 45.2 pM in experiment [6], 7.78 pM with recombinant human IL-13 [7], 25.5 pM with human TSLP [8] and 38.9 pM in experiment [9]. The koff is 0.000119 s⁻¹ in experiment [6], 4.76e-05 s⁻¹ with recombinant human IL-13 [7], 0.000121 s⁻¹ with human TSLP [8] and 0.00135 s⁻¹ in experiment [9]. Moreover, the kon in [6] amounted to 2.64e+06 M⁻¹ s⁻¹; in the experiment with recombinant human IL-13 [7], 6.12e+06 M⁻¹ s⁻¹; with human TSLP [8] it was 4.76e+06 M⁻¹ s⁻¹; in [9], 3.46e+07 M⁻¹ s⁻¹. For the same molecule, in the experiment with recombinant human IL-13 [4], the “HEK-IL-13 [nM] (IC50, STAT6 reporter)” value worked out at 0.0562 nM. The half-maximal inhibitory concentration (IC50) in the experiment with hTSLP-His [5] was 8440 pM.

B3: BDG38.131 (antibody, V domains shown)
VH: QMQLVESGGGVVQPGRSLTLSCAASGFEFRTYGMHWVRQAPGKGLEWVAVIWDDGSNTHYADSVKGRFTITRDNSKNTLNLQMNSLRAEDTAVYYCVRAPQWYLTAEAFDLWGQGTMVTVSS
VL: SYILTQPPSVSVAPGETATITCGGNLIGAKLVHWYQQKPGQAPVLVIYDDSDRPSRIPERFSGSNIGNTATLTISDVEEGDEADYYCQVWDYYSNTMVFGGGTKLTVL
notes: IgG1
Consider B3, for which the “IC50 CD23” value with recombinant human IL-13 [1] was 70 pM. Moreover, the “HEK-IL-13 [nM] (IC50, STAT6 reporter)” value with recombinant human IL-13 [4] came to 0.0443 nM. For the same molecule, in the experiment with recombinant human IL-13 [7], the dissociation constant Kd worked out at 179 pM, the koff is 0.000356 s⁻¹ and the kon was found to be 2e+06 M⁻¹ s⁻¹. Further, in the experiment with human TSLP [8], the Kd was found to be 0.0746 pM, the koff turned out to be 2.85e-07 s⁻¹ and the on-rate (kon) was 3.82e+06 M⁻¹ s⁻¹.

B4: BDG38.117 (antibody, V domains shown)
VH: QMQLVESGGGVVQPGRSLTLSCAASGFEFRTYGMHWVRQAPGKGLEWVGVIWDDGSNTHYADSVKGRFTITRDNSKNTLNLQMNSLRAEDTAVYYCARAPQWYLTAEAFDLWGQGTMVTVSS
VL: SYVLTQPPSVSVAPGETATITCGGNLIGAKLVHWYQQKPGQAPVLVIYDDSDRPSRIPERFSGSNIGNTATLTIEDVEAGDEADYYCQVWDYSSDTMVFGGGTKLTVL
notes: IgG1
In the case of B4, the “IC50 [pM], STAT5 phosphorylation inhibition in MUTZ5 cells” value with hTSLP-His [10] came out at 0.363 pM. Further, the “IC50 CD23” value with recombinant human IL-13 [1] worked out at 121 pM. The Kd came to 14.9 pM with recombinant human IL-13 [2], 3.82 pM in the experiment with human TSLP [3], 8.9 pM in [6] and 36.7 pM in experiment [9]. For the same molecule, the koff is 0.000103 s⁻¹ with recombinant human IL-13 [2], 2.7e-05 s⁻¹ with human TSLP [3], 0.000452 s⁻¹ in [6] and 0.00144 s⁻¹ in [9]. The association rate constant (kon) with recombinant human IL-13 [2] came out at 6.94e+06 M⁻¹ s⁻¹; with human TSLP [3] it was 7.07e+06 M⁻¹ s⁻¹; in [6], 5.08e+07 M⁻¹ s⁻¹; in experiment [9], 3.94e+07 M⁻¹ s⁻¹. In addition, the “HEK-IL-13 [nM] (IC50, STAT6 reporter)” value with recombinant human IL-13 [4] came to 0.0801 nM. For the same molecule, the concentration for half-maximal inhibition (IC50) with hTSLP-His [5] is 6140 pM.

Values taken from patent US20240059769A1 (BIOLOJIC DESIGN, published 2024).
